Source: paper PMC4800717, “Hxt13, Hxt15, Hxt16 and Hxt17 from Saccharomyces cerevisiae represent a novel type of polyol transporters” (Scientific Reports, 2016)

Tests used:
[1] = substrate: OC[C@@H](O)[C@@H](O)[C@H](O)[C@H](O)CO; experiment: cells, lysate or membranes; format: cell-based, Saccharomyces cerevisiae; settings: labelled compound, EBY.VW4000 co-expressing YNR073C, 30 °C
[2] = substrate: OC[C@@H](O)[C@@H](O)[C@H](O)[C@H](O)CO; experiment: NAD+ reduction, crude extract of overexpressing yeast; format: biochemical, Saccharomyces cerevisiae; settings: 1.66 mM NAD+, 60 mM HEPES-NaOH pH 7.4
Source text: NAD+ reduction, crude extract of overexpressing yeast on YNR073C

[3] = substrate: OC[C@@H](O)[C@@H](O)[C@H](O)[C@H](O)CO; experiment: as above; format: biochemical, Saccharomyces cerevisiae; settings: 1.66 mM NAD+, 60 mM HEPES-NaOH pH 7.4; remark: listed apart in the source
Source text: NAD+ reduction, crude extract of overexpressing yeast on Dsf1

[4] = substrate: OC[C@@H](O)[C@@H](O)[C@H](O)[C@@H](O)CO; experiment: cells, lysate or membranes; format: cell-based, Saccharomyces cerevisiae; settings: labelled compound, EBY.VW4000 co-expressing SOR1, 30 °C, facilitated transport
[5] = substrate: OC[C@@H](O)[C@@H](O)[C@H](O)[C@@H](O)CO; experiment: NAD+ reduction, crude extract of overexpressing yeast; format: biochemical, Saccharomyces cerevisiae; settings: 1.66 mM NAD+, 60 mM HEPES-NaOH pH 7.4
Source text: (§1) NAD+ reduction, crude extract of overexpressing yeast on Sor1

[6] = substrate: OC[C@@H](O)[C@@H](O)[C@H](O)[C@H](O)CO; experiment: as above; format: biochemical, Saccharomyces cerevisiae; settings: 1.66 mM NAD+, 60 mM HEPES-NaOH pH 7.4; remark: listed apart in the source
Source text: as §1

[7] = substrate: OC[C@@H](O)[C@@H](O)[C@H](O)[C@@H](O)CO; experiment: as above; format: biochemical, Saccharomyces cerevisiae; settings: 1.66 mM NAD+, 60 mM HEPES-NaOH pH 7.4; remark: listed apart in the source
Source text: (§2) NAD+ reduction, crude extract of overexpressing yeast on Sor2

[8] = substrate: OC[C@@H](O)[C@@H](O)[C@H](O)[C@H](O)CO; experiment: as above; format: biochemical, Saccharomyces cerevisiae; settings: 1.66 mM NAD+, 60 mM HEPES-NaOH pH 7.4; remark: listed apart in the source
Source text: as §2

B1: Hxt17 (Saccharomyces cerevisiae S288C) (protein)
chain: MQSSTESDRDIQDGPDADIHVAPPVEKEWSDGFDDNEVINGDNVEPPKRGLIGYLVIYLLCYPISFGGFLPGWDSGITAGFINMDNFKMNFGSYKHSTGEYYLSNVRMGLLVAMFSIGCAIGGLIFARLADTLGRRLAIVIVVLVYMVGAIIQISSNHKWYQYFVGKIIYGLGAGGCSVLCPMLLSEIAPTDLRGGLVSLYQLNMTFGIFLGYCSVYGTRKYDNTAQWRVPLGLCFLWTLIIIIGMLLVPESPRYLIECERHEEARASIAKINKVSPEDPWVLKQADEINAGVLAQRELGEASWKELFSVKTKVLQRLITGILVQTFLQLTGENYFFFYGTTIFKSVGLTDGFETSIVLGTVNFFSTIIAVMVVDKIGRRKCLLFGAAGMMACMVIFASIGVKCLYPHGQDGPSSKGAGNAMIVFTCFYIFCFATTWAPVAYIVVAESFPSKVKSRAMSISTACNWLWQFLIGFFTPFITGSIHFYYGYVFVGCLVAMFLYVFFFLPETIGLSLEEIQLLYEEGIKPWKSASWVPPSRRGIPSEESKTEKKDWKKFLKFSKGSD
notes: full-length ORF, p426H7 plasmid, expressed in hxt0 yeast EBY.VW4000 with YNR073C or SOR1
B1 was tested, and the Km [1] was 18.6 ± 4.3 mM.

B2: YNR073C (Saccharomyces cerevisiae S288C) (protein)
chain: MTKSDETTATSLNAKTLKSFESTLPIPTYPREGVKQGIVHLGVGAFHRSHLAVFMHRLMQEHHLKDWSICGVGLMKADALMRDAMKAQDCLYTLVERGIKDTNAYIVGSITAYMYAPDDPRAVIEKMANPDTHIVSLTVTENGYYHSEATNSLMTDAPEIINDLNHPEKPDTLYGYLYEALLLRYKRGLTPFTIMSCDNMPQNGVTVKTMLVAFAKLKKDEKFAAWIEDKVTSPNSMVDRVTPRCTDKERKYVADTWGIKDQCPVVAEPFIQWVLEDNFSDGRPPWELVGVQVVKDVDSYELMKLRLLNGGHSAMGYLGYLAGYTYIHEVVNDPTINKYIRVLMREEVIPLLPKVPGVDFEEYTASVLERFSNPAIQDTVARICLMGSGKMPKYVLPSIYEQLRKPDGKYKLLAVCVAGWFRYLTGVDMNGKPFEIEDPMAPTLKAAAVKGGKDPHELLNIEVLFSPEIRDNKEFVAQLTHSLETVYDKGPIAAIKEILDQV
notes: full-length ORF, p425H7 multicopy plasmid, overexpressed in yeast CEN.PK2-1C; crude extract
In the case of B2, the Km [2] is reported as 3.6 ± 0.5 mM and the Vmax [2] is reported as 0.40 ± 0.02 umol substrate converted per minute per.

B3: Dsf1 (Saccharomyces cerevisiae S288C) (protein)
chain: MTKSDETTATSLNAKTLKSFESTLPIPTYPREGVKQGIVHLGVGAFHRSHLAVFMHRLMQEHHLKDWSICGVGLMKADALMRDAMKAQDCLYTLVERGIKDTNAYIVGSITAYMYAPDDPRAVIEKMANPDTHIVSLTVTENGYYHSEATNSLMTDAPEIINDLNHPEKPDTLYGYLYEALLLRYKRGLTPFTIMSCDNMPQNGVTVKTMLVAFAKLKKDEKFAAWIEDKVTSPNSMVDRVTPRCTDKERKYVADTWGIKDQCPVVAEPFIQWVLEDNFSDGRPPWELVGVQVVKDVDSYELMKLRLLNGGHSAMGYLGYLAGYTYIHEVVNDPTINKYIRVLMREEVIPLLPKVPGVDFEEYTASVLERFSNPAIQDTVARICLMGSGKMPKYVLPSIYEQLRKPDGKYKLLAVCVAGWFRYLTGVDMNGKPFEIEDPMAPTLKAAAVKGGKDPHELLNIEVLFSPEIRDNKEFVAQLTHSLETVYDKGPIAAIKEILDQV
notes: as for B2
For B3, the Km [3] was 2.9 ± 0.3 mM and the Vmax [3] was 0.90 ± 0.02 umol substrate converted per minute per.

B4: Hxt13 (Saccharomyces cerevisiae S288C) (protein)
chain: MSSAQSSIDSDGDVRDADIHVAPPVEKEWSDGFDDNEVINGDNVEPPKRGLIGYLVIYLLCYPISFGGFLPGWDSGITAGFINMDNFKMNFGSYKHSTGEYYLSNVRMGLLVAMFSIGCAIGGLIFARLADTLGRRLAIVIVVLVYMVGAIIQISSNHKWYQYFVGKIIYGLGAGGCSVLCPMLLSEIAPTDLRGGLVSLYQLNMTFGIFLGYCSVYGTRKYDNTAQWRVPLGLCFLWALIIIIGMLLVPESPRYLIECERHEEARASIAKINKVSPEDPWVLKQADEINAGVLAQRELGEASWKELFSVKTKVLQRLITGILVQTFLQLTGENYFFFYGTTIFKSVGLTDGFETSIVLGTVNFFSTIIAVMVVDKIGRRKCLLFGAAGMMACMVIFASIGVKCLYPHGQDGPSSKGAGNAMIVFTCFYIFCFATTWAPVAYIVVAESFPSKVKSRAMSISTACNWLWQFLIGFFTPFITGSIHFYYGYVFVGCLVAMFLYVFFFLPETIGLSLEEIQLLYEEGIKPWKSASWVPPSRRGISSEESKTEKKDWKKFLKFSKNSD
notes: as for B1
In the case of B4, the Km [4] is reported as 20.4 ± 2.4 mM and the Km ([1]; facilitated transport) is reported as 16.7 ± 2.9 mM.

B5: Hxt15 (Saccharomyces cerevisiae S288C) (protein)
chain: MASEQSSPEINADNLNSSAADVHVQPPGEKEWSDGFYDKEVINGNTPDAPKRGFLGYLIIYLLCYPVSFGGFLPGWDSGITAGFINMDNFKMNFGSYKHSTGEYYLSNVRMGLLVAMFSVGCSIGGVAFARLADTLGRRLAIVIVVLVYMVGAIIQISSNHKWYQYFVGKIIYGLGAGGCSVLCPMLLSEIAPTDLRGGLVSLYQLNMTFGIFLGYCSVYGTRKYSNTAQWRIPVGLCFLWALIIIVGMLLVPESPRYLIECERHEEACVSIAKINKVSPEDPWVLKQADEINAGVLAQRELGEASWKELFSVKTKVLQRLITGILVQTFLQLTGENYFFFYGTTIFKSVGLTDGFETSIVLGTVNFFSTIIAVMVVDKIGRRKCLLFGAASMMACMVIFASIGVKCLYPHGQDGPSSKGAGNAMIVFTCFYIFCFATTWAPVAYIVVAESFPSKVKSKAMSISTAFNWLWQFLIGFFTPFITGSIHFYYGYVFVGCLVAMFLYVFFFLPETIGLSLEEIQLLYEEGIKPWKSASWVPPSRRGASSRETEAKKKSWKEVLKFPKSFN
notes: full-length ORF, p426H7 plasmid, expressed in hxt0 yeast EBY.VW4000 or AFY10 with a polyol dehydrogenase
Protein B5 has a Km [4] of 38.9 ± 8.6 mM and a Km ([1]; facilitated transport) of 11.4 ± 2.7 mM.

B6: Sor1 (Saccharomyces cerevisiae S288C) (protein)
chain: MSQNSNPAVVLEKVGDIAIEQRPIPTIKDPHYVKLAIKATGICGSDIHYYRSGGIGKYILKAPMVLGHESSGQVVEVGDAVTRVKVGDRVAIEPGVPSRYSDETKEGRYNLCPHMAFAATPPIDGTLVKYYLSPEDFLVKLPEGVSYEEGACVEPLSVGVHSNKLAGVRFGTKVVVFGAGPVGLLTGAVARAFGATDVIFVDVFDNKLQRAKDFGATNTFNSSQFSTDKAQDLADGVQKLLGGNHADVVFECSGADVCIDAAVKTTKVGGTMVQVGMGKNYTNFPIAEVSGKEMKLIGCFRYSFGDYRDAVNLVATGKVNVKPLITHKFKFEDAAKAYDYNIAHGGEVVKTIIFGPE
notes: as for B2
With B6 the Km [5] was 11.8 ± 1.4 mM, the Vmax [5] was 0.40 ± 0.01 umol substrate converted per minute per and the Km [6] was 89.0 ± 37.5 mM. For the same protein, the Vmax [6] was 0.10 ± 0.02 umol substrate converted per minute per.

B7: Sor2 (Saccharomyces cerevisiae S288C) (protein)
chain: MSQNSNPAVVLEKVGDIAIEQRPIPTIKDPHYVKLAIKATGICGSDIHYYRSGGIGKYILKAPMVLGHESSGQVVEVGDAVTRVKVGDRVAIEPGVPSRYSDETKEGSYNLCPHMAFAATPPIDGTLVKYYLSPEDFLVKLPEGVSYEEGACVEPLSVGVHSNKLAGVRFGTKVVVFGAGPVGLLTGAVARAFGATDVIFVDVFDNKLQRAKDFGATNTFNSSQFSTDKAQDLADGVQKLLGGNHADVVFECSGADVCIDAAVKTTKVGGTMVQVGMGKNYTNFPIAEVSGKEMKLIGCFRYSFGDYRDAVNLVATGKVNVKPLITHKFKFEDAAKAYDYNIAHGGEVVKTIIFGPE
notes: as for B2
With B7 the Km [7] was 15.1 ± 2.8 mM, the Vmax [7] was 0.5 ± 0.02 umol substrate converted per minute per and the Km [8] was 98.4 ± 25.7 mM. For the same protein, the Vmax [8] was 0.05 ± 0.01 umol substrate converted per minute per.
